{"source": "paper PMC8948278", "about": "“Antibody-dependent enhancement (ADE) of SARS-CoV-2 pseudoviral infection requires FcγRIIB and virus-antibody complex with bivalent interaction” (Communications Biology, 2022)", "binders": {"B1": {"name": "KIH format bivalent MW05 (MW05/KIH) (antibody, V domains shown)", "VH": "EVQLVQSGAEVKKPGSSVKVSCKASGGTFSSYAISWVRQAPGQGLEWMGRIIPIFGSSNYAQKFQGRVTITADESTSTAYMELSSLRSEDTAVYYCAESPLGGGSGYSVSWFDPWGQGTLVTVSS", "VL": "not shown", "notes": "also called knob-in-hole format bivalent mAb; copies: + + 2"}, "B2": {"name": "KIH format bivalent MW07 (MW07/KIH) (antibody, V domains shown)", "VH": "EVQLVESGGGLVQPGGSLRLSCAASGFTFSSYWMSWVRQAPGKGLEWVANIKQDASEKYYLDSLKGRFTISRDNAKNSLYLQMNSLRAEDTAVYYCARDLGILWFGDYPWGQGTLVTVSS", "VL": "DIQMTQSPSSLSASVGDRVTITCRASQGISNSLAWYQQKPGKAPKLLLYAASTLESGVPSRFSGSGSGTDFTLTISSLQPEDFATYYCQQFYSTPRTFGQGTKVEIK", "notes": "as for B1"}}, "target": "Recombinant SARS-CoV-2 S trimer protein (ACRO Biosystems SPN-C52H9) (SARS-CoV-2, Wuhan-Hu-1 (reference spike), UniProt P0DTC2)", "assay": "SPR", "settings": "both partners purified", "data": [{"binder": "B1", "values": [{"measurement": "koff", "value": "8.52e-05", "unit": "s⁻¹"}]}, {"binder": "B2", "values": [{"measurement": "koff", "value": "3.02e-05", "unit": "s⁻¹"}]}]}
